Measurements published in publication PMC6757138, “Biochemical and biophysical characterization of purified native CD20 alone and in complex with rituximab and obinutuzumab” (Scientific Reports, 2019).

Molecular target: the molecule itself
Test: AUC; sedimentation velocity, 60,000 rpm, 20 °C; CD20 at 0.5 mg/ml in 20 mM Tris pH 8.0, 150 mM NaCl, CALX-173-GK; also at 0.044 mg/ml after dilution with CALX-173-GK or DDM (0.05%) buffer, where the distribution shifts in favour of the monomer

B1: CD20 (full length, wild type, C-terminal His6 tag) (natural protein, human, UniProt P11836 1-297, looked up)
chain: MTTPRNSVNGTFPAEPMKGPIAMQSGPKPLFRRMSSLVGPTQSFFMRESKTLGAVQIMNGLFHIALGGLLMIPAGIYAPICVTVWYPLWGGIMYIISGSLLAATEKNSRKCLVKGKMIMNSLSLFAAISGMILSIMDILNIKISHFLKMESLNFIRAHTPYINIYNCEPANPSEKNSPSTQYCYSIQSLFLGILSVMLIFAFFQELVIAGIVENEWKRTCSRPKSNIVLLSAEEKKEQTIEIKEEVVGLTETSSQPKNEEDIEIIPIQEEEEEETETNFPEPPQDQESSPIENDSSP
notes: CD20, human, UniProt P11836, full length and wild type, from plasmid pETR17026; Integral membrane protein held in calixarene detergent micelles (CALX-173-GK, or DDM after dilution); also called purified native CD20; recombinant native CD20; source: gel filtration in CALX-173-GK; not shown: His6, C-terminal, kept
binding result: binds
